# System: Escherichia coli TOP10
# Assay: shrunken log2 fold change of peptide-encoding DNA abundance (4.5 h post-induction vs induction); higher = less antimicrobial activity (less host growth inhibition)
# Details: time post-induction: 4.5 h; library: site-saturation at positions 5, 18, 19, 20
# 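Note: peptides expressed intracellularly from a pBAD plasmid library in pooled LB shake-flask culture, induced with 0.3% L-arabinose, DNA abundance read by NGS, three biological replicates, DESeq2 with apeglm shrinkage.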
row,Sequence,shrunken log2 fold change
1,RRIRERPPRLPRPRPRPWAGPRP,-0.208
2,RRIRERPPRLPRPRPRPWARPRP,-0.0915
3,RRIRERPPRLPRPRPRPWCTPRP,-0.391
4,RRIRERPPRLPRPRPRPWCYPRP,-0.947
5,RRIRERPPRLPRPRPRPWDCPRP,-0.0136
6,RRIRERPPRLPRPRPRPWDRPRP,-0.146
7,RRIRERPPRLPRPRPRPWEWPRP,0.0992
8,RRIRERPPRLPRPRPRPWFCPRP,-0.375
9,RRIRERPPRLPRPRPRPWFLPRP,-0.628
10,RRIRERPPRLPRPRPRPWGNPRP,-0.377
11,RRIRERPPRLPRPRPRPWGVPRP,-0.284
12,RRIRERPPRLPRPRPRPWLCPRP,-0.0006
13,RRIRERPPRLPRPRPRPWMYPRP,-0.508
14,RRIRERPPRLPRPRPRPWNIPRP,-0.308
15,RRIRERPPRLPRPRPRPWNLPRP,-0.00195
16,RRIRERPPRLPRPRPRPWRCPRP,-0.0332
17,RRIRERPPRLPRPRPRPWRPPRP,0.0707
18,RRIRERPPRLPRPRPRPWRQPRP,-0.00951
19,RRIRERPPRLPRPRPRPWTGPRP,-0.00968
20,RRIRERPPRLPRPRPRPWTMPRP,0.0606
21,RRIRERPPRLPRPRPRPWVDPRP,-0.665
22,RRIRERPPRLPRPRPRPWVIPRP,0.0392

row,Sequence,shrunken log2 fold change
1,RRIRERPPRLPRPRPRPYAAPRP,-0.368
2,RRIRERPPRLPRPRPRPYAIPRP,-0.52
3,RRIRERPPRLPRPRPRPYAKPRP,-0.329
4,RRIRERPPRLPRPRPRPYAVPRP,-0.441
5,RRIRERPPRLPRPRPRPYCHPRP,-0.467
6,RRIRERPPRLPRPRPRPYCQPRP,-0.0159
7,RRIRERPPRLPRPRPRPYCVPRP,-0.165
8,RRIRERPPRLPRPRPRPYDCPRP,-0.0948
9,RRIRERPPRLPRPRPRPYEWPRP,-0.00963
10,RRIRERPPRLPRPRPRPYFEPRP,-0.696
11,RRIRERPPRLPRPRPRPYGYPRP,-0.0695
12,RRIRERPPRLPRPRPRPYHQPRP,-0.416
13,RRIRERPPRLPRPRPRPYHRPRP,0.00148
14,RRIRERPPRLPRPRPRPYKLPRP,-1.4
15,RRIRERPPRLPRPRPRPYLYPRP,-0.927
16,RRIRERPPRLPRPRPRPYMDPRP,-0.534
17,RRIRERPPRLPRPRPRPYMEPRP,0.0111
18,RRIRERPPRLPRPRPRPYMTPRP,-0.124
19,RRIRERPPRLPRPRPRPYMYPRP,-0.501
20,RRIRERPPRLPRPRPRPYPKPRP,-0.405
21,RRIRERPPRLPRPRPRPYPRPRP,-0.00133
22,RRIRERPPRLPRPRPRPYQPPRP,0.0223

row,Sequence,shrunken log2 fold change
1,RRIRERPPRLPRPRPRPYSRPRP,-0.195
2,RRIRERPPRLPRPRPRPYVFPRP,-0.575
3,RRIRERPPRLPRPRPRPYYTPRP,-0.116
4,RRIRERPPRLPRPRPRPYYYPRP,-0.732
5,RRIRFRPPRLPRPRPRPAAGPRP,0.333
6,RRIRFRPPRLPRPRPRPAARPRP,0.192
7,RRIRFRPPRLPRPRPRPAASPRP,0.0986
8,RRIRFRPPRLPRPRPRPACIPRP,-0.397
9,RRIRFRPPRLPRPRPRPACTPRP,-0.148
10,RRIRFRPPRLPRPRPRPADMPRP,-0.155
11,RRIRFRPPRLPRPRPRPADNPRP,0.0503
12,RRIRFRPPRLPRPRPRPADTPRP,-0.109
13,RRIRFRPPRLPRPRPRPAEKPRP,-0.0885
14,RRIRFRPPRLPRPRPRPAFCPRP,0.0477
15,RRIRFRPPRLPRPRPRPAFQPRP,0.243
16,RRIRFRPPRLPRPRPRPAFWPRP,0.516
17,RRIRFRPPRLPRPRPRPAGVPRP,0.172
18,RRIRFRPPRLPRPRPRPAHEPRP,0.0902
19,RRIRFRPPRLPRPRPRPAHHPRP,-0.152
20,RRIRFRPPRLPRPRPRPAIGPRP,-0.0142
21,RRIRFRPPRLPRPRPRPAIVPRP,-0.0488
22,RRIRFRPPRLPRPRPRPAKDPRP,0.255

row,Sequence,shrunken log2 fold change
1,RRIRFRPPRLPRPRPRPAKWPRP,0.0975
2,RRIRFRPPRLPRPRPRPALIPRP,-0.00983
3,RRIRFRPPRLPRPRPRPAMCPRP,-0.596
4,RRIRFRPPRLPRPRPRPAMDPRP,-0.0614
5,RRIRFRPPRLPRPRPRPAMGPRP,0.119
6,RRIRFRPPRLPRPRPRPAMTPRP,0.00388
7,RRIRFRPPRLPRPRPRPANCPRP,-0.211
8,RRIRFRPPRLPRPRPRPAPDPRP,0.323
9,RRIRFRPPRLPRPRPRPAPSPRP,0.607
10,RRIRFRPPRLPRPRPRPAPTPRP,0.912
11,RRIRFRPPRLPRPRPRPARDPRP,0.732
12,RRIRFRPPRLPRPRPRPARHPRP,0.262
13,RRIRFRPPRLPRPRPRPARKPRP,0.294
14,RRIRFRPPRLPRPRPRPATAPRP,0.106
15,RRIRFRPPRLPRPRPRPATKPRP,0.217
16,RRIRFRPPRLPRPRPRPAVGPRP,0.591
17,RRIRFRPPRLPRPRPRPAWDPRP,0.0926
18,RRIRFRPPRLPRPRPRPAWTPRP,-0.0896
19,RRIRFRPPRLPRPRPRPAYEPRP,0.0737
20,RRIRFRPPRLPRPRPRPCDHPRP,-0.0275
21,RRIRFRPPRLPRPRPRPCDSPRP,-0.0928
22,RRIRFRPPRLPRPRPRPCEMPRP,0.0297

row,Sequence,shrunken log2 fold change
1,RRIRFRPPRLPRPRPRPCEPPRP,0.0391
2,RRIRFRPPRLPRPRPRPCFHPRP,-0.894
3,RRIRFRPPRLPRPRPRPCGIPRP,-0.168
4,RRIRFRPPRLPRPRPRPCHTPRP,-0.17
5,RRIRFRPPRLPRPRPRPCHWPRP,-0.127
6,RRIRFRPPRLPRPRPRPCIRPRP,-0.0335
7,RRIRFRPPRLPRPRPRPCITPRP,-0.709
8,RRIRFRPPRLPRPRPRPCKFPRP,-0.0298
9,RRIRFRPPRLPRPRPRPCKWPRP,-0.0168
10,RRIRFRPPRLPRPRPRPCLCPRP,-0.0404
11,RRIRFRPPRLPRPRPRPCLFPRP,-0.264
12,RRIRFRPPRLPRPRPRPCLGPRP,-0.201
13,RRIRFRPPRLPRPRPRPCLPPRP,-0.783
14,RRIRFRPPRLPRPRPRPCPIPRP,-0.488
15,RRIRFRPPRLPRPRPRPCPMPRP,-0.00789
16,RRIRFRPPRLPRPRPRPCRKPRP,0.0312
17,RRIRFRPPRLPRPRPRPCRLPRP,-0.209
18,RRIRFRPPRLPRPRPRPCSDPRP,-0.119
19,RRIRFRPPRLPRPRPRPCTAPRP,-0.487
20,RRIRFRPPRLPRPRPRPCTDPRP,-0.183
21,RRIRFRPPRLPRPRPRPCVEPRP,-0.267

# Reference: the supplement of paper PMC9112550, “Optimization of the antimicrobial peptide Bac7 by deep mutational scanning” (BMC Biology, 2022)
